Source: patent publication US20170342349A1, “STABILIZED ENZYME COMPOSITIONS” (NOVOZYMES A/S, priority 2014, published 2017)

Tests used:
[1] = target: Protease P (SEQ ID NO 5) variant G128P; experiment: Ki fitted from Suc-AAPF-pNA activity in Model B detergent; IF relative to SEQ ID NO 5
[2] = target: TY145 (SEQ ID NO 3) variant I150S + S173P + S175P + F180Y; experiment: Ki fitted from Suc-AAPF-pNA activity in Model B detergent; IF relative to SEQ ID NO 3 comprising S173P + S175P + F180Y
[3] = target: TY145 (SEQ ID NO 3) variant I150T + S173P + S175P + F180Y; experiment: as above
TY145 (SEQ ID NO 3) variant I150T + S173P + S175P + F180Y, sequence (chain, as listed by the source I150T S173P S175P F180Y I150T S173P S175P F180Y limits assumed): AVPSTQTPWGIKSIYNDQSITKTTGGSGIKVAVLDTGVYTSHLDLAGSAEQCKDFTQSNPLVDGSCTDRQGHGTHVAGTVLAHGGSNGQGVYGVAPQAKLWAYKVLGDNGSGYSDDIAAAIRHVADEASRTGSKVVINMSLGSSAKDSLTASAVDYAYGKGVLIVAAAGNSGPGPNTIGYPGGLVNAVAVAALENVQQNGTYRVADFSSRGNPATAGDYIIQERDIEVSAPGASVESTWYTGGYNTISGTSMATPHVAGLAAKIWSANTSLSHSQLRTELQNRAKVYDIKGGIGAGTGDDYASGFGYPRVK

[4] = target: TY145 (SEQ ID NO 3) variant I150V + S173P + S175P + F180Y; experiment: as above
[5] = target: TY145 (SEQ ID NO 3) variant K146A + S173P + S175P + F180Y; experiment: as above
[6] = target: TY145 (SEQ ID NO 3) variant K146F + S173P + S175P + F180Y; experiment: as above
[7] = target: TY145 (SEQ ID NO 3) variant K146S + S173P + S175P + F180Y; experiment: as above
[8] = target: TY145 (SEQ ID NO 3) variant K146T + S173P + S175P + F180Y; experiment: as above
[9] = target: TY145 (SEQ ID NO 3) variant K146W + S173P + S175P + F180Y; experiment: as above
[10] = target: TY145 (SEQ ID NO 3) variant Q70F + S173P + S175P + F180Y; experiment: as above
TY145 (SEQ ID NO 3) variant Q70F + S173P + S175P + F180Y, sequence (chain, as listed by the source Q70F S173P S175P F180Y Q70F S173P S175P F180Y limits assumed): as the sequence (chain, as listed by the source I150T S173P S175P F180Y I150T S173P S175P F180Y limits assumed) above, with Q70F, T150I counted along it

[11] = target: TY145 (SEQ ID NO 3) variant Q70H + S173P + S175P + F180Y; experiment: as above
TY145 (SEQ ID NO 3) variant Q70H + S173P + S175P + F180Y, sequence (chain, as listed by the source Q70H S173P S175P F180Y Q70H S173P S175P F180Y limits assumed): as the sequence (chain, as listed by the source I150T S173P S175P F180Y I150T S173P S175P F180Y limits assumed) above, with Q70H, T150I counted along it

[12] = target: TY145 (SEQ ID NO 3) variant Q70Y + S173P + S175P + F180Y; experiment: as above
TY145 (SEQ ID NO 3) variant Q70Y + S173P + S175P + F180Y, sequence (chain, as listed by the source Q70Y S173P S175P F180Y Q70Y S173P S175P F180Y limits assumed): as the sequence (chain, as listed by the source I150T S173P S175P F180Y I150T S173P S175P F180Y limits assumed) above, with Q70Y, T150I counted along it

[13] = target: TY145 (SEQ ID NO 3) variant S111I + S173P + S175P + F180Y; experiment: as above
[14] = target: TY145 (SEQ ID NO 3) variant S114A + S173P + S175P + F180Y; experiment: as above
[15] = target: TY145 (SEQ ID NO 3) variant S114F + S173P + S175P + F180Y; experiment: as above
[16] = target: TY145 (SEQ ID NO 3) variant S114Q + S173P + S175P + F180Y; experiment: as above
[17] = target: TY145 (SEQ ID NO 3) variant S173P + S175P + F180Y + L184D; experiment: as above
TY145 (SEQ ID NO 3) variant S173P + S175P, sequence (chain, as listed by the source S173P S175P S173P S175P limits assumed): as the sequence (chain, as listed by the source I150T S173P S175P F180Y I150T S173P S175P F180Y limits assumed) above, with T150I, Y180F counted along it

[18] = target: TY145 (SEQ ID NO 3) variant S173P + S175P + F180Y + L184F; experiment: as above
[19] = target: TY145 (SEQ ID NO 3) variant S173P + S175P + F180Y + L184H; experiment: as above
[20] = target: TY145 (SEQ ID NO 3) variant S173P + S175P + F180Y + L184Y; experiment: as above
[21] = target: TY145 (SEQ ID NO 3) variant S173P + S175P + I178F + F180Y; experiment: as above
[22] = target: TY145 (SEQ ID NO 3) variant S173P + S175P; experiment: Ki fitted from Suc-AAPF-pNA activity in Model B detergent; IF relative to SEQ ID NO 3 comprising S173P + S175P (the reference itself)

Inhibitor 1: Cbz-Gly-Ala-NHCH(CH2C6H4pOH)C(OH)(SO3Na)-H (peptide)
IF (binding constant improvement factor, relative Ki) [1]: 1.19 | IF (binding constant improvement factor, relative Ki) [2]: 5.7 | IF (binding constant improvement factor, relative Ki) [3]: 4.15 | IF (binding constant improvement factor, relative Ki) [4]: 1.8 | IF (binding constant improvement factor, relative Ki) [5]: 3.72 | IF (binding constant improvement factor, relative Ki) [6]: 5.17 | IF (binding constant improvement factor, relative Ki) [7]: 1.13 | IF (binding constant improvement factor, relative Ki) [8]: 15.9 | IF (binding constant improvement factor, relative Ki) [9]: 5.47 | IF (binding constant improvement factor, relative Ki) [10]: 11.8 | IF (binding constant improvement factor, relative Ki) [11]: 3.78 | IF (binding constant improvement factor, relative Ki) [12]: 7.44 | IF (binding constant improvement factor, relative Ki) [13]: 1.12 | IF (binding constant improvement factor, relative Ki) [14]: 3.33 | IF (binding constant improvement factor, relative Ki) [15]: 1.41 | IF (binding constant improvement factor, relative Ki) [16]: 2.03 | IF (binding constant improvement factor, relative Ki) [17]: 3.28 | IF (binding constant improvement factor, relative Ki) [18]: 4.28 | IF (binding constant improvement factor, relative Ki) [19]: 2.5 | IF (binding constant improvement factor, relative Ki) [20]: 3.91 | IF (binding constant improvement factor, relative Ki) [21]: 2.34 | IF (binding constant improvement factor, relative Ki) [22]: 1
